The target in the assay is sodium Nav1.2 voltage-gated channel (expressed in Xenopus oocytes). The experiment in a line: cell-based or functional assay.

tethered µ-o-conotoxin MrVIA had a current flux through the channel, whole cell currents in Xenopus oocytes of 90%.

The record behind these values is US20060057614A1 (priority 2004, published 2006).
